{"source": "patent US6515110", "key": {"[1]": {"biological_target": "TAG-72 antigen on a human breast carcinoma extract (human)", "assay": "competition ELISA, competitor biotin-CC49 IgG, human breast carcinoma extract"}, "[2]": {"biological_target": "TAG-72 antigen on a human breast carcinoma extract (human)", "assay": "competition RIA, competitor 125I-CC49 IgG, human breast carcinoma extract"}}}
{"substance": "CC49/4-4-20 heterodimer Fv (fraction 5) (bispecific antibody)", "values": [{"measurement": "fold higher protein concentration needed to displace the IgG (against CC49/212 single-chain Fv)", "setting": "[1]", "value": 200, "unit": "fold"}]}
{"substance": "CC49/212 single-chain antigen-binding protein (monomer) (scFv)", "values": [{"measurement": "fold higher protein concentration needed to displace the IgG (against CC49 IgG and bivalent CC49/212)", "setting": "[2]", "value": 10, "unit": "fold"}]}
